Experimental data as given in article doi:10.1101/2020.07.09.174003 (bioRxiv, 2020).

Experiments:
[1] = target: Deinococcus radiodurans phytochrome (DrBphP) photosensory module, biliverdin-bound, with C-terminal AviTag and HisTag (Deinococcus radiodurans); assay: SEC
[2] = target: Rhodopseudomonas palustris BphP1 (RpBphP1), mammalian two-hybrid fusion (Rhodopseudomonas palustris); assay: two-hybrid
[3] = target: DrBphP photosensory module, biliverdin-bound, yeast two-hybrid bait (Deinococcus radiodurans (entry strain …, UniProt Q9RZA4, biliverdin-bound)); assay: two-hybrid
Sequence of DrBphP photosensory module, biliverdin-bound, yeast two-hybrid bait (Deinococcus radiodurans (Q9RZA4 whole entry, looked up, tested part not stated): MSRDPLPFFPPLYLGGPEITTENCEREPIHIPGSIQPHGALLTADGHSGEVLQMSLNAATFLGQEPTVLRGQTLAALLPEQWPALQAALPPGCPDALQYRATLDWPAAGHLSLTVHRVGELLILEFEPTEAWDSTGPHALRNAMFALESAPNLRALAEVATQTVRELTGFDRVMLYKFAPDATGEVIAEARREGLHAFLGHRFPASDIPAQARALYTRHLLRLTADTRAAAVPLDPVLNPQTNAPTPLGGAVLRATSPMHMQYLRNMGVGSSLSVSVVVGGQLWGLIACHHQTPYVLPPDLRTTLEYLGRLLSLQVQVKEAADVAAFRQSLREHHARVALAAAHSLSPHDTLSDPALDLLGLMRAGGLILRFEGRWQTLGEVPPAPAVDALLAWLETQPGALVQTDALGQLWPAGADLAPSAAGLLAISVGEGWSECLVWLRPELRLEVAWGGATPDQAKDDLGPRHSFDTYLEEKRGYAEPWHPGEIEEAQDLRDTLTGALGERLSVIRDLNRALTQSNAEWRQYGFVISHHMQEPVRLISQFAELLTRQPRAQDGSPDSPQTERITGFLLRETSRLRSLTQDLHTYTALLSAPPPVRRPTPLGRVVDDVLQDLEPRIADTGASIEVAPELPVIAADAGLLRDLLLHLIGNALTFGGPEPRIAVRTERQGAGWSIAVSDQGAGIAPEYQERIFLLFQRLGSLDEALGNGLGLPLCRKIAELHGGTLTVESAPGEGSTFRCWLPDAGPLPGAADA

Deinococcus radiodurans phytochrome (DrBphP) photosensory module, biliverdin-bound, with C-terminal AviTag and HisTag (domain or fragment)
stoichiometry N [1]: 2

PpsR2, mammalian two-hybrid fusion (natural protein)
fold increase of luciferase expression, 775-nm light over dark [2]: 2.95 fold

Q-PAS1, a truncated form of PpsR2, mammalian two-hybrid fusion (domain or fragment)
fold increase of luciferase expression, 775-nm light over dark [2]: 2.02 fold

B1: LDB-4 nanobody, yeast two-hybrid prey (VHH)
VHH: EVQLQASGGGFVQPGGSLRLSCAASGDTSYLYSMGWFRQAPGKEREFVSAISWWWNLTQYYADSVKGRFTISRDNSKNTVYLQMNSLRAEDTATYYCAWSIYFPPGNDYNGYHYWGQGTQVTVSS
binding result [3]: binds

B2: LDB-6 nanobody, yeast two-hybrid prey (VHH)
VHH: EVQLQASGGGFVQPGGSLRLSCAASGFFSNWSDMGWFRQAPGKEREFVSAISFWADGTEYYADSVKGRFTISRDNSKNTVYLQMNSLRAEDTATYYCAWYGPVNGFYMFDYWGQGTQVTVSS
binding result [3]: binds

B3: LDB-7 nanobody, yeast two-hybrid prey (VHH)
VHH: EVQLQASGGGFVQPGGSLRLSCAASGSTSDFESMGWFRQAPGKEREFVSAISSWFTNPPYYADSVKGRFTISRDNSKNTVYLQMNSLRAEDTATYYCAHRSIWYHPTYWGQGTQVTVSS
binding result [3]: binds
